In article PMC11931385, “Structural and functional analysis of cancer-associated missense variants in the retinoblastoma protein pocket domain” (The Journal of Biological Chemistry, 2025):
Numbering of substitutions follows the chain as printed. Names and notes keep the numbering of the source. No end group written: not given here. TMR = tetramethyl rhodamine dye

Key:
Experiment in all cases: fluorescence polarisation; 25 °C; unlabeled Rb^P titrated against 1.5 nM TMR-E2F1^TD or 7.5 nM TMR-E7^LxCxE; 25 mM Tris pH 8.0, 200 mM NaCl, 1 mM DTT, 0.1% Tween-20; 2 min incubation; quadratic fit; apparent Kd for the variants, Kd for WT
Conditions in all cases: both partners purified
[1] = molecular target: T1, Rb^P K530I (human, UniProt P06400 380-788, K530I)
T1 construct: also called variant 21
T1 sequence (looked up): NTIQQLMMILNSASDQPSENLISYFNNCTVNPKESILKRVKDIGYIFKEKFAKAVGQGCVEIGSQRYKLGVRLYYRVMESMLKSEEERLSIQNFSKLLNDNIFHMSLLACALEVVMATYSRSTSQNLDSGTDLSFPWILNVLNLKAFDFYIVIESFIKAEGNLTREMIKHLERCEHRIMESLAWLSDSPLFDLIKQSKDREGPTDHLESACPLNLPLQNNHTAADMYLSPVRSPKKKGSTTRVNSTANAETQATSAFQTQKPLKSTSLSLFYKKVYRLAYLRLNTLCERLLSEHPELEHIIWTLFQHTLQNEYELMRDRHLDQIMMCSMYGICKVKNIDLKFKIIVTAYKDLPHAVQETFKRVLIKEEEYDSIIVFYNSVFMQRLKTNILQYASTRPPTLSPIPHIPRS

[2] = molecular target: T2, Rb^P R451C (human, UniProt P06400 380-788, R451C)
T2 construct: also called variant 5
T2 sequence (looked up): T1 sequence (looked up) with R72C, I151K

[3] = molecular target: T3, Rb^P R611S (human, UniProt P06400 380-788, R611S)
T3 construct: also called variant 38
T3 sequence (looked up): T1 sequence (looked up) with I151K, R232S

[4] = molecular target: T4, Rb^P R451H (human, UniProt P06400 380-788, R451H)
T4 construct: also called variant 6
T4 sequence (looked up): T1 sequence (looked up) with R72H, I151K

[5] = molecular target: T5, Rb^P S474N (human, UniProt P06400 380-788, S474N)
T5 construct: also called variant 12
T5 sequence (looked up): T1 sequence (looked up) with S95N, I151K

B1: TMR-E2F1^TD, peptide of the E2F1 transactivation domain (peptide)
peptide: {TMR}-GEGIRDLFDCDFGDLTPLD
notes: also called E2F^TD; source: synthetic peptide, bought: GenScript
Kd [1]: 945 nM | Kd [2]: 33 nM | Kd [3]: 15 nM | Kd [4]: 29 nM | Kd [5]: 19 nM

B2: TMR-E7^LxCxE, LxCxE peptide of the E7 oncoprotein from HPV (peptide)
peptide: DLYCYEQLN
modifications: also: TMR label, position not given here
notes: source: synthetic peptide, bought: GenScript
Kd [1]: 8 nM | Kd [2]: 7 nM | Kd [3]: 5 nM | Kd [4]: 9 nM | Kd [5]: 8 nM
